Data on 1 molecule can be found in patent US20230036928A1 (Sanofi, published 2023).

The target in the assay is T1, TGF-β2.
T1 sequence (P61812 303-414, species assumed, looked up): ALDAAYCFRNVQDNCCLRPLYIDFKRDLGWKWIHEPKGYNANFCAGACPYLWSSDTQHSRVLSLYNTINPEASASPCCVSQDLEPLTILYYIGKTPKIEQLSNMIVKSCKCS
In words: cell-based or functional assay.

B1: Ab1 (antibody, human IgG4 S228P, kappa, V domains shown)
VH: QVQLVQSGAEVKKPGSSVKVSCKASGYTFSSNVISWVRQAPGQGLEWMGGVIPIVDIANYAQRFKGRVTITADESTSTTYMELSSLRSEDTAVYYCASTLGLVLDAMDYWGQGTLVTVSS
VL: ETVLTQSPGTLSLSPGERATLSCRASQSLGSSYLAWYQQKPGQAPRLLIYGASSRAPGIPDRFSGSGSGTDFTLTISRLEPEDFAVYYCQQYADSPITFGQGTRLEIKR
As for B1, the “relative potency (EC50 of the reference divided by EC50 of the test sample) in mink lung cell proliferation assay with PrestoBlue read-out” value was ~1 ratio (relative potency).
